In paper PMC6802635:

Molecular target: NRLLLTG peptide
Assay: ELISA; 150 ng NRLLLTG peptide coated on the plate in 0.05 M sodium carbonate pH 9.6; HSP70 protein added in a dose-dependent manner; detected with anti-HSP70 antibody, TMB, 450 nm

How did the fold affinity relative to WT HSP70 turn out when “purified HSP70 S385D/S400D double phospho-mimetic mutant (from UniProt P0DMV8 1-641) (natural protein)” was run?
The fold affinity relative to WT HSP70 was 1.5 fold.
